Laboratory results taken from patent US20200399343A1.

Tests used:
[1] = molecular target: major histocompatibility complex (MHC) Class I
[2] = molecular target: major histocompatibility complex (MHC) Class I; remark: listed apart in the source

With K3 the MHC Class I expression (MFI HLA A/B/C) on transduced primary T cells (MFI HLA A/B/C) [1] was 10900 and the MHC Class I expression (MFI HLA A/B/C) on transduced Jurkat cells (MFI HLA A/B/C) [2] was 2170.

For US3, the MHC Class I expression (MFI HLA A/B/C) on transduced primary T cells (MFI HLA A/B/C) [1] was 13000 and the MHC Class I expression (MFI HLA A/B/C) on transduced Jurkat cells (MFI HLA A/B/C) [2] was 5320.

K5 was tested, and the MHC Class I expression (MFI HLA A/B/C) on transduced primary T cells (MFI HLA A/B/C) [1] was 4480 and the MHC Class I expression (MFI HLA A/B/C) on transduced Jurkat cells (MFI HLA A/B/C) [2] was 661.

B1: ICP47 (protein)
chain: MSWALEMADTFLDTMRVGPRTYADVRDEINKRGREDREAARTAVHDPERPLLRSPGLLPEIAPNASLGVAHRRTGGTVTDSPRNPVTR
B1 gave an MHC Class I expression (MFI HLA A/B/C) on transduced primary T cells (MFI HLA A/B/C) [1] of 5940 and an MHC Class I expression (MFI HLA A/B/C) on transduced Jurkat cells (MFI HLA A/B/C) [2] of 2060.

B2: E19 (protein)
chain: TTQKVDFKEPACNVTFAAEANECTTLIKCTTEHEKLLIRHKNKIGKYAVYAIWQPGDTTEYNVTVFQGKSHKTFMYTFPFYEMCDITMYMSKQYKLWPPQNCVENTGTFCCTAMLITVLALVCTLLYIKYKSRRSFIEEKKMP
B2 showed an MHC Class I expression (MFI HLA A/B/C) on transduced primary T cells (MFI HLA A/B/C) [1] of 14800 and an MHC Class I expression (MFI HLA A/B/C) on transduced Jurkat cells (MFI HLA A/B/C) [2] of 3430.

B3: US6 (protein)
chain: ERSSRDPKTLLSLSPRQQACVPRTKSHRPVCYNDTGDCTDADDSWKQLGEDFAHQCLQAAKKRPKTHKSRPNDRNLEGRLTCQRVRRLLPCDLDIHPSHRLLTLMNNCVCDGAVWNAFRLIERHGFFAVTLYLCCGITLLVVILALLCSITYESTGRGIRR
B3 showed an MHC Class I expression (MFI HLA A/B/C) on transduced primary T cells (MFI HLA A/B/C) [1] of 9500 and an MHC Class I expression (MFI HLA A/B/C) on transduced Jurkat cells (MFI HLA A/B/C) [2] of 1720.

B4: US2 (protein)
chain: MNNLWKAWVGLWTSMGPLIRLPDGITKAGEDALRPWKSTAKHPWFQIEDNRCYIDNGKLFARGSIVGNMSRFVFDPKADYGGVGENLYVHADDVEFVPGESLKWNVRNLDVMPIFETLALRLVLQGDVIWLRCVPELRVDYTSSAYMWNMQYGMVRKSYTHVAWTIVFYSINITLLVLFIVYVTVDCNLSMMWMRFFVC
B4 was tested, and the MHC Class I expression (MFI HLA A/B/C) on transduced primary T cells (MFI HLA A/B/C) [1] was 14500 and the MHC Class I expression (MFI HLA A/B/C) on transduced Jurkat cells (MFI HLA A/B/C) [2] was 6080.

B5: US11 (protein)
chain: MPELSLTLFDEPPPLVETEPLPPLSDVSEYRVEYSEARCVLRSGGRLEALWTLRGNLSVPTPTPRVYYQTLEGYADRVPTPVEDVSESLVAKRYWLRDYRVPQRTKLVLFYFSPCHQCQTYYVECEPRCLVPWVPLWSSLEDIERLLFEDRRLMAYYALTIKSAQYTLMMVAVIQVFWGLYVKGWLHRHFPWMFSDQW
In the case of B5, the MHC Class I expression (MFI HLA A/B/C) on transduced primary T cells (MFI HLA A/B/C) [1] is reported as 14600 and the MHC Class I expression (MFI HLA A/B/C) on transduced Jurkat cells (MFI HLA A/B/C) [2] is reported as 8080.
